Measurements taken from US20260265360A1, “USE OF ANTI-FAM19A5 ANTAGONISTS FOR TREATING HEARING DISORDERS” (NEURACLE SCIENCE CO., LTD., priority 2023, published 2026).

Biological target: human FAM19A5 (Homo sapiens, UniProt Q7Z5A7)
Assay: HDX-MS epitope mapping
Assay type: binding
Conditions: HDX-MS deuterium uptake heat map; residues of SEQ ID NO: 304
Procedure: Hydrogen/deuterium exchange mass spectrometry (HDX-MS) was utilized as described below to probe the binding epitope of human FAM19A5 for the clone 2-13 anti-FAM19A5 antibody.
Prior to epitope mapping experiments, non-deuteriated experiments were carried out to generate a list of common peptides for FAM19A5 protein. Off-line and on-line pepsin digestion were used to digest the FAM19A5 protein. Houde, D., et al., Methods Mol Biol 988:269-89 (2013). With on-line digestion, pepsin immobilized column was used (~20° C.) and the efficiency of the reaction was regulated by adjusting the flow rate. With the off-line method, FAM19A5 protein was digested manually with pepsin at 4° C. for 5 minutes, and then, the mixture was loaded to liquid chromatography column for analysis. To identify the condition for maximal protein coverage, one or more of the following parameters were adjusted: potassium phosphate, sodium phosphate, quench holding time, reducing reagent (TCEP), urea concentration, and pepsin concentration. The Waters PLGS software was used to analyze the raw mass spectrometry (MS) data generated to determine whether maximal protein coverage was obtained. To confirm the reproducibility of the experiments, each of the experimental conditions were repeated at least twice, and peptides that were generated were confirmed. […]

Chain of human FAM19A5 (Q7Z5A7 26-125 isoform Q7Z5A7-2 limits assumed): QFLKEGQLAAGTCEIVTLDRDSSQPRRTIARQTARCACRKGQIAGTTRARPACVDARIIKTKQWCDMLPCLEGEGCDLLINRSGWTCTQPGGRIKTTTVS

B1: 2-13: anti-FAM19A5 antibody; VH SEQ ID NO: 35, VL SEQ ID NO: 39 (antibody, V domains shown)
VH: AVTLDESGGGLQTPGGALSLVCKASGFTFSSHGMFWVRQTPGKGLEYVAEITNDGSGTNYGSAVKGRATISRDNGQSTVRLQLNNLRAEDTGTYFCARSTYECPGGFSCWGDTGQIDAWGHGTEVIVSS
VL: ALTQPSSVSANPGETVKITCSGGSYSYGWFQQKSPGSALVTVIYWDDERPSDIPSRFSGALSGSTNTLTITGVQADDEAVYFCGTEDISGTAGVFGAGTTLTVL
modifications: 2-13 VH; 2-13 VL
In the case of B1, the “amino acid residues identified as important binding residues” value is reported as 38-50 ([…]; i.e., SEQ ID NO: 199) and 51-64 ([…]; i.e., SEQ ID NO: 200).
